# Source: patent publication US20240294650A1 (Alector, published 2024)
# Positions count from the first letter of the chain named.
# T1: Full Axl (ECD domain of human Axl) (human, UniProt P30530 26-451)
# T1 construct: also called human Axl ECD
# T1 sequence: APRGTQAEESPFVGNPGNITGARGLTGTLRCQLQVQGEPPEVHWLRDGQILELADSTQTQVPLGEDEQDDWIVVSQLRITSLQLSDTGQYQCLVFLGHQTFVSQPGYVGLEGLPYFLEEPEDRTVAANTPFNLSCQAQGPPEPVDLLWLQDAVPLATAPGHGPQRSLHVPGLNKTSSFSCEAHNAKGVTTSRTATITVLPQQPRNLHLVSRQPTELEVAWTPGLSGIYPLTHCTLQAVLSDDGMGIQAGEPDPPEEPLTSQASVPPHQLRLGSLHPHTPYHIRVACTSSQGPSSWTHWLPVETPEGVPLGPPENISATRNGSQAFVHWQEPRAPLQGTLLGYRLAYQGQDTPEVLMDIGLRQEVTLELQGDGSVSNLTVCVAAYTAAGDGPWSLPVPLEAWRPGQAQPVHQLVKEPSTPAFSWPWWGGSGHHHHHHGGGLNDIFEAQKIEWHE
# T2: human MerTK (human, UniProt Q12866 21-999)
# T2 sequence: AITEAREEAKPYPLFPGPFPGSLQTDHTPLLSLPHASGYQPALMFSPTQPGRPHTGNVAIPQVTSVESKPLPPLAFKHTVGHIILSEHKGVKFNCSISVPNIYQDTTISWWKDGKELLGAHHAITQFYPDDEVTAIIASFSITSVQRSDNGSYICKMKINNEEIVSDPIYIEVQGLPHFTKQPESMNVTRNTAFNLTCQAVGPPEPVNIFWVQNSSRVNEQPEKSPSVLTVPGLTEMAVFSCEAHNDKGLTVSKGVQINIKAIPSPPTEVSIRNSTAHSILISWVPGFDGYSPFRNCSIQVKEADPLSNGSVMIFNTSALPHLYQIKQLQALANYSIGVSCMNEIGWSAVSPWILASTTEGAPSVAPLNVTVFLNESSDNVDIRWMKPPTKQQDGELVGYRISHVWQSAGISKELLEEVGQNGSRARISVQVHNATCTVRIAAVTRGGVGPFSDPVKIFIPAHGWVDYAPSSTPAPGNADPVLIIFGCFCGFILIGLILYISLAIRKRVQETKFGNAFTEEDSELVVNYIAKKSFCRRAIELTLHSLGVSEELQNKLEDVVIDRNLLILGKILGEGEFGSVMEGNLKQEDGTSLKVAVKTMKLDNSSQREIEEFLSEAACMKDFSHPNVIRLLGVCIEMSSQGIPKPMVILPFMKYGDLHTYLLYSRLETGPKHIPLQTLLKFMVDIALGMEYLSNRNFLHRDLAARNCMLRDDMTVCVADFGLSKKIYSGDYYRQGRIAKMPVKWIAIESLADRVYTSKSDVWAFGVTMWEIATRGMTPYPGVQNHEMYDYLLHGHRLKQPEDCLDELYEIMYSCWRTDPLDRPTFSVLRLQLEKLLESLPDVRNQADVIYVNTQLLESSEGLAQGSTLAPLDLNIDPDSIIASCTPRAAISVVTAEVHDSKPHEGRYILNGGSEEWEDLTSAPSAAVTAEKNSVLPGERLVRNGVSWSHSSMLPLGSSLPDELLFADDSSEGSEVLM
# T3: Recombinant human MerTK-human Fc Chimera protein (human, UniProt Q12866 26-499, limits assumed)
# T3 construct: bought construct; also called MerTK-Fc (R&D systems, Cat #391-MR-100)
# T3 sequence: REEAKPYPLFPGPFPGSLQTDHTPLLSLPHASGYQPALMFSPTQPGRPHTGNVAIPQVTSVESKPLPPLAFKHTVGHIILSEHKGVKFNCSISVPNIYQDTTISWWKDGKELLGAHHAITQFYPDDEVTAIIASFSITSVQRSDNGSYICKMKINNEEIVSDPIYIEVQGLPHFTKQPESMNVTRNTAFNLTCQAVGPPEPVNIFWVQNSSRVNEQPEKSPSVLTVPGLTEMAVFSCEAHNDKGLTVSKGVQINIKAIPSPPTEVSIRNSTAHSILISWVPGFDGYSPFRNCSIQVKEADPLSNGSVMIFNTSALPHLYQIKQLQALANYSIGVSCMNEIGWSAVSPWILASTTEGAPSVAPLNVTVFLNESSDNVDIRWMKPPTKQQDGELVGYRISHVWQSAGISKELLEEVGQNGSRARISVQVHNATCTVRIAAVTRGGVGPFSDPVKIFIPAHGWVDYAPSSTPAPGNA
# B1: MTK-221 (antibody, human IgG1, V domains shown)
# VH: QVTLKESGPGMLQSSQTLSLTCSFSGFSLSTSGMGVSWIRQPSGKGLEWLAHIYWDDDKRYNTSLQSRLTISKDTSRNQVFLKITSVDTADTATYFCGRLGAYSAFPYYFDYWGQGTTLTVSS
# VL: DIQMTQSPSSLSASLGGKVTITCKASQDIHKHIAWYQHKPGKGPRLLIHYTSTLQPGIPSRFSGSGSGRDYSFSISNLEPEDLATYYCLQYDNLWTFGGGTKLEIK
# B2: MTK-202 (antibody, human IgG1, V domains shown)
# VH: EVQLVESGGGLVKPGGSLKLSCAASGFTFSDFGMHWVRQVPEKGLEWVAFISGGSNTIYYTDTVKGRFTISRDNAKNTLFLQMTSLRSEDTAMYYCVRNGNSFAYWGQGTLVTVSA
# VL: NIMMTQSPSSLAVSAGEKVTMNCKSSQSVLYSSNQKNYLAWYQQKPGQSPKLLIYWASTRESGVPDRFTGSGSGTDFTLTISNIQAEDLAIYYCHQYFFSWTFGGGTKLEIK
# B3: MTK-204 (antibody, human IgG1, V domains shown)
# VH: EVQLVESGGGLVKPGGSLKLSCAASGFTFSDYGMHWVRQAPEKGLEWVAYISSGTSTIYYEDTVKGRFTISRDNAKNTLFLQMTSLRSEDTAMYYCARGGLLFDYWGQGTTLTVSS
# VL: B2 VL with N22S, Y55Q, G74E, S82R, N83S, I84V, I91V, F99S
# B4: MTK-212 (antibody, human IgG1, V domains shown)
# VH: QVQLQQSGPELVKPGASVKISCKASGYAFSSSWVNWVKQRPGKGLEWIGRIYPGDGDSNYNGNFKGKATLTADKSSNTAYLQLSSLTSEDSAVYFCARKSHFIYYTLDYWGQGTPVTVSS
# VL: DIVMTQSHKFKSTSVGDRVSIACKASQDVGTSVAWYQQKPGKSPKLLIYWASSRHTGVPDRFTGSGSGTDFTLTISNVQSEDLTDYFCQQYSTYPYTFGGGTKLEIK
# B5: MTK-225 (antibody, human IgG1, V domains shown)
# VH: EVQLQQSGPELVKPGASVKIFCKASGYTFTAYNMDWVKQSHGKSLEWIGDINPNNGGTIYNQKFKGKATLTVDKSSSTAYMELRSLTSEDTAVYYCARRRRYGNTYYWYFDVWGTGTTVTVSS
# VL: DIQMTQSPASLSVSVGETVTITCRASENIYSSLAWYQQKQGKSPQLLVYAATNLADGVPSRFSGSGSGTQFYLKINGLQSEDFGSYYCQHFWGTSYTFGGGTKLEIK
# B6: MTK-206 (antibody, human IgG1, V domains shown)
# VH: QVQLQQSGAELARPGASVKMSCKASGYTFTSYTMHWVKQRPGQGLEWIGYINPSSGYIKNSQKFKDKATLTADKSSSTAYMQLSSLTSEDSAVYYCARTVYGYYGSSPDYWGQGTTLTVSS
# VL: DIQMTQSPSSLSASLGERVSLTCRASQDIGSNLNWLQQEPDGTIKRLIYATSSLESGVPKRFSGSRSGSDYSLTISSLESEDFVDYYCLQYDSSPWTFGGGTKLEIK
# B7: MTK-231 (antibody, human IgG1, V domains shown)
# VH: DVQLQESGPGLVKPSQSLSLTCSVTGYSITSGYYWNWIRQFPGNKLEWMGYISYDGTYNYHPSLKNRISITRDTSKNQFFLTLNSVTTEDTATFYCTRGGGYWGQGTSVTVSS
# VL: DVVMTQTPLSLPVSLGDQASISCRSSQSLVHSDGNTYLHWYLQKPGQSPKLLIYKVSNRFSGVPDRFSGSGSGTDFTLKISRLEAEDLGIYFCSQTTHIPLTFGSGTKLEIK
# Biological target: T1, Full Axl (ECD domain of human Axl)
# Assay: SPR (data not shown)
# Procedure, shortened: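 Purified anti-MerTK antibodies were amine-coupled in duplicate to an HC30M chip; construct-containing supernatants, diluted 1:1 in HBS-TE running buffer with 0.5 mg/mL BSA, were injected over them. Surfaces were regenerated with 10 mM glycine pH2.0 between injections, and sensorgram binding patterns were scored.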
row,Binder,binding result
1,B1,no binding
2,B2,no binding
3,B3,no binding
4,B4,no binding
5,B5,no binding
6,B6,no binding
7,B7,no binding

# Biological target: T2, human MerTK
# Assay: cell-based or functional assay
Binder,Fold increase in PAKT over IgG control [fold],"EC50 (nM), pAKT in SK-MEL-5 cells [nM]"
B1,4.4,
B2,3,1.01
B3,3,
B4,3.3,96.9
B5,4.5,
B6,3.1,
B7,3,0.65

# Biological target: T3, Recombinant human MerTK-human Fc …
# Assay: blocking ELISA, ProS-His on MerTK-Fc, Ab 66.6 nM, isotype=100%
# Procedure: Briefly, rabbit anti-human IgG antibody (Jackson ImmunoResearch, Cat #309-005-008) was coated at 2 μg/ml onto high-protein binding plates at 4° C. overnight. After washing with 0.05% Tween20 in PBS three times, 5% BSA in PBS was added for 1 hour. Recombinant human MerTK-human Fe Chimera protein (R&D systems, Cat #391-MR-100) was added at 2 μg/ml for 1 hour and plates were washed before the addition of 40 μl of anti-MerTK hybridoma supernatants and 40 μl of His tag-conjugated recombinant Gas6 (R&D systems, Cat #885-GSB-050) at 3 μg/ml or His tag-conjugated recombinant ProS (R&D systems, Cat #9489-PS-100) at 20 μg/ml. After a further incubation for 1 hour, plates were washed and incubated for 1 hour with HRP-conjugated anti-6×His tagged antibody (Abcam, Cambridge, MA, Cat #ab1187). Plates were then washed and an HRP substrate, TMB, was added to develop the plates. The reaction was stopped by adding 50 μl 2N H₂SO₄ and the OD was measured using a spectrophotometer (BioTek).
# Anti-MerTK antibodies were titrated to a final concentration from 66.6 nM to 4 pM and tested against anti-human MerTK antibody M6 (disclosed in WO2016/106221) or isotype control antibody.
row,Binder,Percent ProS ligand binding [%]
1,B1,72.8
2,B2,53.4
3,B3,101
4,B4,45.8
5,B5,186
6,B6,132
7,B7,152
